Source: patent US20260265403A1 (TJ BIOPHARMA SHANGHAI, published 2026)
Where a chain is given by its changes, count along the chain named.

T1: Human CD24 (human, UniProt P25063 27-59, limits assumed)
T1 chain (looked up): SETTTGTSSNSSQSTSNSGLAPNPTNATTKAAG

T2: human CD24 on cells (human, UniProt P25063 27-59)
T2 construct: whole, on cells; One molecule for all cell lines; the cell line is named under assay or readout; also called cell surface CD24; cell-based CD24
T2 chain (looked up): T1 chain (looked up)

B1: VH1 + VL2 (humanized 4451) (antibody, V domains shown)
VH: QVQLVQSGAEVKKPGASVKVSCKASGYDFTGYHMNWVRQAPGQGLEWMGEINPITSDKTFNQKFKSRVTMTRDTSISTAYMELSRLRSDDTAVYYCARRDYGTSLDYWGQGTTVTVSS
VL: DIQLTQSPSFLSASVGDRVTITCRASKSISKYLAWYQQKPGKAPRLLIYAGSTLHSGVPSRFRGSGSGTEFTLTISSLQPEDFATYYCQQHNEYPITFGQGTKLEIK
notes: IgG expressed in HEK293
B2: VH2 + VL3 (humanized 4451) (antibody, V domains shown)
VH: B1 VH with M48I, R72V
VL: B1 VL with R45K, V58I
notes: IgG expressed in HEK293
B3: VH2 + VL1 (humanized 4451) (antibody, V domains shown)
VH: B1 VH with M48I, R72V
VL: B1 VL with R45K, R63S
notes: IgG expressed in HEK293
B4: VH4 + VL1 (humanized 4451) (antibody, V domains shown)
VH: B1 VH with R38K, M48I, V68A, R72V, T74R
VL: B1 VL with R45K, R63S
notes: IgG expressed in HEK293
B5: VH3 + VL4 (humanized 4451) (antibody, V domains shown)
VH: B1 VH with M48I, V68A, R72V
VL: B1 VL with T22Y, V58I
notes: IgG expressed in HEK293
B6: VH3 + VL1 (humanized 4451) (antibody, V domains shown)
VH: B1 VH with M48I, V68A, R72V
VL: B1 VL with R45K, R63S
notes: IgG expressed in HEK293
B7: VH1 + VL4 (humanized 4451) (antibody, V domains shown)
VH: B1 VH
VL: B1 VL with T22Y, V58I
notes: IgG expressed in HEK293
B8: VH3 + VL3 (humanized 4451) (antibody, V domains shown)
VH: B1 VH with M48I, V68A, R72V
VL: B1 VL with R45K, V58I
notes: IgG expressed in HEK293
B9: VH4 + VL3 (humanized 4451) (antibody, V domains shown)
VH: B1 VH with R38K, M48I, V68A, R72V, T74R
VL: B1 VL with R45K, V58I
notes: IgG expressed in HEK293
B10: VH3 + VL2 (humanized 4451) (antibody, V domains shown)
VH: B1 VH with M48I, V68A, R72V
VL: B1 VL
notes: IgG expressed in HEK293
B11: VH4 + VL2 (humanized 4451) (antibody, V domains shown)
VH: B1 VH with R38K, M48I, V68A, R72V, T74R
VL: B1 VL
notes: IgG expressed in HEK293

Assays:
Human CD24 = biological target: T1, Human CD24; experiment: affinity ranking; antibody as ligand, Human CD24 as analyte
human CD24 on cells [1] = biological target: T2, human CD24 on cells; experiment: flow cytometry (GMFI), SKOV3 cells; EC50 table under the graphs [Cont'd) B]
human CD24 on cells [2] = biological target: T2, human CD24 on cells; experiment: flow cytometry (GMFI), MCF-7 cells; EC50 table under the graphs

Binder	Kd (Human CD24)	koff (Human CD24)	kon (Human CD24)	EC50 (human CD24 on cells [1])	EC50 (human CD24 on cells [2])
B1	13.8 nM	0.0239 s⁻¹	1.74e+06 M⁻¹ s⁻¹	0.38 µg/mL	0.4 µg/mL
B2	19.4 nM	0.023 s⁻¹	1.18e+06 M⁻¹ s⁻¹	0.42 µg/mL	0.42 µg/mL
B3	20.9 nM	0.0264 s⁻¹	1.26e+06 M⁻¹ s⁻¹	0.45 µg/mL	0.45 µg/mL
B4	8.33 nM	0.0128 s⁻¹	1.54e+06 M⁻¹ s⁻¹	0.43 µg/mL	0.45 µg/mL
B5	24.8 nM	0.0163 s⁻¹	655000 M⁻¹ s⁻¹	0.42 µg/mL	0.41 µg/mL
B6	26 nM	0.0294 s⁻¹	1.13e+06 M⁻¹ s⁻¹	0.42 µg/mL	0.42 µg/mL
B7	15 nM	0.0241 s⁻¹	1.61e+06 M⁻¹ s⁻¹	0.43 µg/mL	0.4 µg/mL
B8	23.8 nM	0.027 s⁻¹	1.13e+06 M⁻¹ s⁻¹	0.42 µg/mL	0.42 µg/mL
B9	8.84 nM	0.0119 s⁻¹	1.34e+06 M⁻¹ s⁻¹	0.44 µg/mL	0.45 µg/mL
B10	23.7 nM	0.0262 s⁻¹	1.1e+06 M⁻¹ s⁻¹	0.52 µg/mL	0.52 µg/mL
B11	9 nM	0.0115 s⁻¹	1.28e+06 M⁻¹ s⁻¹	0.43 µg/mL	0.44 µg/mL
